Test results reported in article PMC11399261 (Nature Communications, 2024).
Blank lines part the entries; values can stand above or below the binder they belong to.

What was measured:
Cdt1-Mcm2-7 heptamer = Cdt1-Mcm2-7 heptamer (S. cerevisiae, UniProt P47112;P29469;P24279;P30665;P29496;P53091;P38132); experiment: pull-down
[1] = target: Orc2-ΔN200 containing ORC (S. cerevisiae, UniProt P54784;P32833;P54790;P54791;P50874;P38826); experiment: MCM loading assay on DNA beads
[2] = target: Orc2-I194E containing ORC (S. cerevisiae, UniProt P54784;P32833;P54790;P54791;P50874;P38826, I194E); experiment: MCM loading assay on DNA beads
[3] = target: origin recognition complex (ORC), wild type (S. cerevisiae, UniProt P54784;P32833;P54790;P54791;P50874;P38826); experiment: MCM loading assay on DNA beads
[4] = target: Orc2-ΔN175 containing ORC (S. cerevisiae, UniProt P54784;P32833;P54790;P54791;P50874;P38826); experiment: MCM loading assay on DNA beads

binding result (Cdt1-Mcm2-7 heptamer): binds
B1: GST-Orc2N200-I194E (domain or fragment)
chain: MLNGEDFVEHNDILSSPAKSRNVTPKRVDPHGERQLRRIHSSKKNLLERISLVGNERKNTSPDPALKPKTPSKAPRKRGRPRKIQEELTDRIKKDEKDTISSKKKRKLDKDTSGNVNEESKTSNNKQVMEKTGIKEKREREKIQVATTTYEDNVTPQTDDNFVSNSPEPPEPATPSKKSLTTNHDFTSPLKQIEMNNLKE

binding result [1]: binds
binding result [2]: binds
binding result [3]: binds
binding result [4]: binds
B2: His-SUMO-Cdc6 (natural protein)
chain: MSAIPITPTKRIRRNLFDDAPATPPRPLKRKKLQFTDVTPESSPEKLQFGSQSIFLRTKALLQKSSELVNLNSSDGALPARTAEYEQVMNFLAKAISEHRSDSLYITGPPGTGKTAQLDMIIRQKFQSLPLSLSTPRSKDVLRHTNPNLQNLSWFELPDGRLESVAVTSINCISLGEPSSIFQKIFDSFQDLNGPTLQIKNMQHLQKFLEPYHKKTTFVVVLDEMDRLLHANTSETQSVRTILELFLLAKLPTVSFVLIGMANSLDMKDRFLSRLNLDRGLLPQTIVFQPYTAEQMYEIVIQKMSSLPTIIFQPMAIKFAAKKCAGNTGDLRKLFDVLRGSIEIYELEKRFLLSPTRGSLNSAQVPLTPTTSPVKKSYPEPQGKIGLNYIAKVFSKFVNNNSTRTRIAKLNIQQKLILCTIIQSLKLNSDATIDESFDHYIKAITKTDTLAPLQRNEFLEICTILETCGLVSIKKTKCKGKTKRFVDKIDVDLDMREFYDEMTKISILKPFLH
